From US20240125796A1

Columns and labels:
[1] = molecular target: Herceptin antibody labelled with biotin; test: mass photometry; first 500 s after 25 mM free biotin, compared with the PBS control
[2] = molecular target: Herceptin antibody labelled with biotin; test: mass photometry; control with PBS as release agent, streptavidin-coated coverslip loaded with Herc-B
[3] = molecular target: Herceptin antibody labelled with biotin; test: mass photometry; consecutive measurement with 25 mM free biotin, release of Herc-B from immobilised streptavidin
[4] = molecular target: Herceptin antibody labelled with biotin; test: mass photometry; consecutive measurement with 25 mM free biotin, compared with the PBS control
[5] = molecular target: Herceptin antibody labelled with biotin; test: mass photometry; first 500 s after 25 mM free biotin, release of Herc-B from immobilised streptavidin

- Percentage increase to control [1]: 90.5%
- Difference UB - B [2]: 17 counts
- Unbinding (UB) events, MW 76 to 273 kDa [2]: 161 counts
- Difference UB - B [3]: 84 counts
- Unbinding (UB) events, MW 76 to 273 kDa [3]: 565 counts
- Percentage increase to control [4]: 79.8%
- Difference UB - B [5]: 179 counts
- Unbinding (UB) events, MW 76 to 273 kDa [5]: 460 counts
Substance: streptavidin (from UniProt P22629 37-163)
